Stoichiometry N data for one substance are collected here from paper PMC11849630.

In the assay the target is eGFP-tagged htau 441 ΔK280 mutant (eGFP-tau ΔK280) (human) (UniProt P10636). The assay can be described thus: fluorescence correlation spectroscopy (FCS/FCCS) in live cells; HEK293T cells overexpressing fluorescent-protein-fused tau; diffusion coefficient fitted (3D normal diffusion), mass by Stokes-Einstein, calibrated with eGFP-mCherry fusion; only tau not bound to microtubules.

For “eGFP-tagged htau 441 ΔK280 mutant (eGFP-tau ΔK280) (from UniProt P10636-8 1-441) (natural protein)”, the stoichiometry N was determined as 19.

A word on the stoichiometry N: it is a count of units in the complex or per binding partner.
